Source: patent US20120003668A1, “HIGH RESOLUTION COMPLEX STRUCTURE AND ALLOSTERIC EFFECTS OF LOW MOLECULAR WEIGHT ACTIVATORS ON THE PROTEIN KINASE PDK1” (UNIVERSITAET DES SAARLANDES, priority 2008, published 2012)
Positions count from the first letter of the chain named. “Also recorded” adds a separate entry of the source. One block for each molecule: values may come before it.

Legend:
[1] = test system: PDK1; test: PDK1 protein kinase activity test with T308tide substrate; assay type: biochemical, human
Experimental: In brief, PDK1 activity assay was performed at room temperature (22° C.) in a 20 μl mix containing 50 mM Tris pH 7.5, 0.05 mg/ml BSA, 0.1% β-mercaptoethanol, 10 mM MgCl2, 100 μM [γ^32P]ATP (5-50 cpm/pmol), 0.003% Brij, 150 ng PDK1, and T308tide (from 0.1 to 1 mM). […] Experiments were repeated at least twice.

[2] = biological target: T1, PDK1 catalytic domain (Homo sapiens, UniProt O15530); test: TNP-ATP fluorescence probing of the ATP binding site conformation; assay type: biochemical; settings: 40 μM TNP-ATP, 15 μM PDK1 catalytic domain
T1 construct: The catalytic domain (CD) of PDK1 50-359 and its mutants
T1 sequence (O15530 50-359): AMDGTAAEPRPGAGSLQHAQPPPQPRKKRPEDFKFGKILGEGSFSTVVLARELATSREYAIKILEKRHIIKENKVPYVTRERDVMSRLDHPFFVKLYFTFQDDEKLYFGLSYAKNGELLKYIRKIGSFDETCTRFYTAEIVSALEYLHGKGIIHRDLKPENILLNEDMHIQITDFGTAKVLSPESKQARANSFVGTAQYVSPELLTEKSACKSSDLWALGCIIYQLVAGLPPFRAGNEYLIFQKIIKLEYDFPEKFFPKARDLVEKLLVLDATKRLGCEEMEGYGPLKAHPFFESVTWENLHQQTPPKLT
From the text: Probing the conformation of the ATP binding site in PDK1: The activation of PDK1 by HM-polypeptides and small compounds is due to a change in the conformation of the enzyme. We probed the conformation of the ATP binding site in PDK1 by scanning the steady-state fluorescence of TNP-ATP/PDK1, in the presence or absence of P-HM-polypeptides, PIFtide, or small molecular weight compounds. Data were obtained in a Varian Cary Eclipse spectrofluorometer (excitation λ=479 nm; emission scanning, λ=500-600 nm; excitation slit=10 nm; emission slit=10 nm) at a rate of 200 nm/min, with 150 datapoints/100 nm scanning and 0.3 s averaging time. The incubation was performed at 20° C. in a buffer containing 50 mM Tris pH 7.5, 0.1 mM EDTA, 187 mM NaCl, 40 μM TNP-ATP, 15 μM PDK1 catalytic domain, 1 mM DTT and 1% DMSO. In the absence of PDK1, TNP-ATP produced approximately 1.5 arbitrary units (a.u.) of fluorescence, and the inclusion of PDK1 increased its fluorescence intensity to approximately 3.3 a.u. […] In preliminary tests, inclusion of 2.5 mM MgCl2 in the assay mix produced similar results. Data for each condition are the average of 3 scans.

[3] = biological target: biotin-P-HM-polypeptide derived from S6K1; test: SPR (BiaCore), biotin-P-HM-S6K chip; injected at 1.8 vs 1.3 µM
[4] = biological target: biotin-P-HM-polypeptide derived from S6K1; test: SPR (BiaCore), biotin-P-HM-S6K on streptavidin chip; mutant injected at 1.3 or 1.8 µM (which mutant at which concentration is not stated)
[5] = biological target: T2, biotin-PIFtide (biotin (position not given)); test: SPR (BiaCore), immobilised biotin-PIFtide
T2 construct: Biotinylated PIFtide
T2 peptide: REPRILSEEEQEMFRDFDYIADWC

[6] = biological target: biotin-P-HM-polypeptide derived from S6K1; test: SPR (BiaCore), immobilised biotin-P-HM-S6K
[7] = biological target: T3, PIFtide
T3 chain: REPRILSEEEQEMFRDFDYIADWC

Chain of biotin-P-HM-polypeptide derived from S6K1 (peptide, as listed by the source limits assumed): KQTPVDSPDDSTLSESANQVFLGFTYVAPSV

Molecule: KTFCGTPEYLAPEVRR [T308tide, polypeptide substrate of PDK1 derived from the PDK1 phosphorylation site on PKB]
Km ([1]; estimated, 22° C.): > 10 mM

activation of PDK1 ([1]; T308tide as substrate): nor did they activate PDK1
Molecule: O=C(O)/C=C(\CCc1ccc(Br)cc1F)c1ccccc1 [PS133]
effect on TNP-ATP fluorescence intensity in the presence of PDK1 [2]: did not produce any decrease; also recorded: did not affect

response units [3]: 200 RU
response units [4]: > 200 RU
percent of maximal binding of the wild type protein [5]: ~50%
percent of maximal binding of the wild type protein [6]: 50%
B1: PDK1 CD (50-359) [Phe224Trp] (enzyme)
chain: T1 sequence (O15530 50-359) with F175W
notes: also called PDK1[Phe224Trp]; PDK1 Phe224Trp
PDK1 activity, T308tide as substrate [7]: the wild type protein and PDK1[Phe224Trp] were activated by PIFtide
stated: activates; PDK1 activity (%) with T308tide as substrate [7]: The bar without PIFtide is at 100 %. The two hatched PIFtide bars (labelled 2.5 and 40 µM) are both between 440 and 480 %.

response units [3]: 200 RU
response units [4]: > 200 RU
percent of maximal binding of the wild type protein [5]: ~50%
percent of maximal binding of the wild type protein [6]: 50%
B2: PDK1 CD (50-359) [Thr226Trp] (enzyme)
chain: T1 sequence (O15530 50-359) with T177W
notes: also called PDK1[Thr226Trp]; PDK1 Thr226Trp
PDK1 activity, T308tide as substrate [7]: PDK1[Thr226Trp] was not activated by PIFtide
stated: no activation; PDK1 activity (%) with T308tide as substrate [7]: The bar without PIFtide is at 100 %. The two hatched PIFtide bars (labelled 2.5 and 40 µM) stay at about 100 %.
